Tests used:
[1] = system: EPEA (SEQ ID NO:1)-tagged Rev protein; assay: In vivo detection of EPEA-tagged Rev in transfected HeLa cells by confocal microscopy; format: cell-based, HIV; conditions: nanobody fused to mKO1 or GFP, GYQDYEPEA and EPEA tags
Excerpt: In another set of experiments, we explored the use of the EPEA (SEQ ID NO:1) tag to detect/visualize the expression of recombinant proteins within a (living) eukaryotic cell. […] Cells that are double-transfected with Rev-[sequence] (SEQ ID NO:10) or Rev-[sequence]
The two different tags [sequence] (SEQ ID NO:2) and EPEA (SEQ ID NO:1) were C-terminal fused to Rev by PCR using Takara Ex Taq polymerase (TAKARA BIO INC).
HeLa, human epithelial cells were maintained using standard procedures until confluent in DMEM medium with 10% fetal calf serum. For transfection of plasmid DNA in HeLa, cells were harvested by a Trypsin/EDTA treatment, counted and plated onto glass bottom microwell dishes (MatTek corporation). Transfections were preformed according to manufacturer's manual: the 4×10^5 cells were seeded in a 35 mm dish. […]
Transfected HeLa cells were imaged with a laser scanning SP5 confocal microscope (Leica Microsystems) equipped with an AF 6000 microscope and an AOBS, using a HCX PL APO×63 (NA 1.2) water immersion objective magnification. GFP was monitored with the Ar laser using the 488-nm line for excitation, and emission was detected between 492 and 570 nm. mKusabira orange fluorescent protein (mKO) was imaged using the DPSS-561 nm laser for excitation, and emission was detected between 570 and 675 nm.

[2] = biological target: Peptide N-YEPEA-C (SEQ ID NO: 11), residues Y136-A140 of full-length α-synuclein (Homo sapiens, UniProt P37840); assay: Isothermal titration calorimetry (ITC) of NbSyn2 binding to C-terminal peptide fragment of α-synuclein
Description: Calorimetric measurements were recorded using a MCS-ITC calorimeter (MicroCal, LLC, Northampton, Mass., USA). […] Both proteins were dialyzed prior to measurements in exactly the same buffer containing 10 mM phosphate, 150 mM sodium chloride at a pH of 7.4. Each injection was performed every four minutes at the desired temperature. […] The thermodynamic analysis was performed using the Microcal analysis software (Origin 7.0) with a 1:1 binding model. The temperature dependence of ΔH, allowed the calculation of ΔCp through the relationship ΔCp=δΔH/δT. The contribution of protonation to the ΔH was evaluated using a 10 mM Tris-HCL buffer 100 mM NaCl at pH 7.4.

## NbSyn2: Nanobody that specifically binds to α-synuclein, 126 amino acids, SEQ ID NO:21
[1]
  Recognition of tagged Rev in double-transfected cells (colocalization in the nucleus): recognized in vivo
[2]; 293.1 K
  Kd: 240 ± 26 nM
[2]; 298.1 K
  Kd: 190 ± 30 nM
[2]; 303.1 K
  Kd: 460 ± 110 nM
[2]; 310.1 K
  Kd: 850 ± 130 nM

From patent US9518084B2, “Epitope tag for affinity-based applications” (VIB VZW, priority 2010, dated 2016)
